From patent US11292821B2, “Peptides and combination of peptides for use in immunotherapy against lung cancer, including NSCLC, SCLC and other cancers” (Immatics Biotechnologies GmbH, priority 2017, dated 2022)

What was measured:
CD8+ T cells = assay: In vitro T-cell priming assay with aAPCs (in vitro immunogenicity for MHC class I presented peptides); type: cell-based, human; details: in vitro immunogenicity, HLA B*07
HLA-B*07 = HLA-B*07 (Homo sapiens, UniProt P01889); assay: MHC binding assay (UV-ligand exchange, β2m ELISA)
Excerpt: Candidate peptides for T cell based therapies according to the present invention were further tested for their MHC binding capacity (affinity). The individual peptide-MHC complexes were produced by UV-ligand exchange, where a UV-sensitive peptide is cleaved upon UV-irradiation, and exchanged with the peptide of interest as analyzed. Only peptide candidates that can effectively bind and stabilize the peptide-receptive MHC molecules prevent dissociation of the MHC complexes. To determine the yield of the exchange reaction, an ELISA was performed based on the detection of the light chain (β2m) of stabilized MHC complexes. The assay was performed as generally described in Rodenko et al. (Rodenko et al., 2006).
96 well MAXISorp plates (NUNC) were coated over night with 2 ug/ml streptavidin in PBS at room temperature, washed 4× and blocked for 1 h at 37° C. in 2% BSA containing blocking buffer. […] Peptide-MHC monomers of the UV-exchange reaction were diluted 100-fold in blocking buffer. Samples were incubated for 1 h at 37° C., washed four times, incubated with 2 ug/ml HRP conjugated anti-β2m for 1h at 37° C., washed again and detected with TMB solution that is stopped with […]. Absorption was measured at 450 nm. Candidate peptides that show a high exchange yield (preferably higher than 50%, most preferred higher than 75%) are generally preferred for a generation and production of antibodies or fragments thereof, and/or T cell receptors or fragments thereof, as they show sufficient avidity to the MHC molecules and prevent dissociation of the MHC complexes.

| Substance | Wells positive [%] (CD8+ T cells) | Peptide exchange (peptide exchange yield, MHC class I binding score) (HLA-B*07) |
| --- | --- | --- |
| 473 (LPRALLSSL; listed as Homo sapiens) [compound 473] | “++” (20%-49% = ++) | “++++” (>75% = ++++) |
| 242 (SPRWLPVSL; listed as Homo sapiens) [compound 242] | “++++” (>=70% = ++++) | “++++” (>75% = ++++) |
| 224 (GPQPWHAAL; listed as Homo sapiens) [compound 224] | “++” (20%-49% = ++) | “++++” (>75% = ++++) |
| 241 (SARLATDAL; listed as Homo sapiens) [compound 241] | “+++” (50%-69% = +++) | “++++” (>75% = ++++) |
| 252 (SPDIRNTTV; listed as Homo sapiens) [compound 252] | “+” (<20% = +) | “++++” (>75% = ++++) |
| 245 (RIREHVPQL; listed as Homo sapiens) [compound 245] | “++” (20%-49% = ++) | “+++” (>50 = +++) |
| 463 (TPKAGPTL; listed as Homo sapiens) [compound 463] | “+” (<20% = +) | “++++” (>75% = ++++) |
| 231 (RPRALRDLQL; listed as Homo sapiens) [compound 231] | “++” (20%-49% = ++) | “++++” (>75% = ++++) |
| 232 (RPRALRDLQLL; listed as Homo sapiens) [compound 232] | “+++” (50%-69% = +++) | “++++” (>75% = ++++) |
| 235 (MPLKHYLLL; listed as Homo sapiens) [compound 235] | – | “++++” (>75% = ++++) |
| 221 (VPDVAQFVL; listed as Homo sapiens) [compound 221] | “++” (20%-49% = ++) | “++++” (>75% = ++++) |
| 249 (VPSSRILQL; listed as Homo sapiens) [compound 249] | “+++” (50%-69% = +++) | “++++” (>75% = ++++) |
| 280 (VPISEEGTPVL; listed as Homo sapiens) [compound 280] | – | “+++” (>50 = +++) |
| 462 (RPFHTRATV; listed as Homo sapiens) [compound 462] | “++” (20%-49% = ++) | “++++” (>75% = ++++) |
| 259 (RPPAAGLRGISL; listed as Homo sapiens) [compound 259] | – | “++++” (>75% = ++++) |
| 256 (SPRVPSIEL; listed as Homo sapiens) [compound 256] | – | “++++” (>75% = ++++) |
| 239 (YVPSASLFML; listed as Homo sapiens) [compound 239] | – | “++++” (>75% = ++++) |
| 251 (VPRSSGQTV; listed as Homo sapiens) [compound 251] | – | “++++” (>75% = ++++) |
| 262 (SAYPQRLEI; listed as Homo sapiens) [compound 262] | – | “+” (>10% = +) |
| 472 (NPRATDAQL; listed as Homo sapiens) [compound 472] | – | “++++” (>75% = ++++) |

| Substance | Wells positive [%] (CD8+ T cells) | Peptide exchange (peptide exchange yield, MHC class I binding score) (HLA-B*07) |
| --- | --- | --- |
| 291 (SPQRLRGLL; listed as Homo sapiens) [compound 291] | – | “++++” (>75% = ++++) |
| 464 (YPRPGTPAA; listed as Homo sapiens) [compound 464] | – | “++++” (>75% = ++++) |
| 258 (LPRGPLASL; listed as Homo sapiens) [compound 258] | – | “++++” (>75% = ++++) |
| 282 (MPQIETRVIL; listed as Homo sapiens) [compound 282] | – | “+++” (>50 = +++) |
| 283 (RPHSLSSEL; listed as Homo sapiens) [compound 283] | – | “++++” (>75% = ++++) |
| 475 (RPHKPGLYL; listed as Homo sapiens) [compound 475] | – | “++++” (>75% = ++++) |
| 243 (RPIENRILIL; listed as Homo sapiens) [compound 243] | – | “++++” (>75% = ++++) |
| 466 (APYKSVTSL; listed as Homo sapiens) [compound 466] | – | “++++” (>75% = ++++) |
| 276 (LPRAGGAFL; listed as Homo sapiens) [compound 276] | – | “+++” (>50 = +++) |
| 238 (KPGPPWAAF; listed as Homo sapiens) [compound 238] | – | “++++” (>75% = ++++) |
| 270 (APGPRFLVT; listed as Homo sapiens) [compound 270] | – | “++++” (>75% = ++++) |
| 269 (APRAPRLML; listed as Homo sapiens) [compound 269] | – | “++++” (>75% = ++++) |
| 234 (RAKNAGVTI; listed as Homo sapiens) [compound 234] | – | “++++” (>75% = ++++) |
| 268 (YPLFRGINL; listed as Homo sapiens) [compound 268] | – | “++++” (>75% = ++++) |
| 459 (RPMQQARAQL; listed as Homo sapiens) [compound 459] | – | “+++” (>50 = +++) |
| 279 (SPARASPAL; listed as Homo sapiens) [compound 279] | – | “+++” (>50 = +++) |
| 471 (KPRPDVTNEL; listed as Homo sapiens) [compound 471] | – | “++++” (>75% = ++++) |
| 260 (YPQHPGLNA; listed as Homo sapiens) [compound 260] | – | “+++” (>50 = +++) |
| 227 (YPRGNHWAVGH; listed as Homo sapiens) [compound 227] | – | “++++” (>75% = ++++) |
| 469 (YPENGVVQM; listed as Homo sapiens) [compound 469] | – | “++” (>20% = ++) |

| Substance | Wells positive [%] (CD8+ T cells) | Peptide exchange (peptide exchange yield, MHC class I binding score) (HLA-B*07) |
| --- | --- | --- |
| 465 (VPRPIFSQL; listed as Homo sapiens) [compound 465] | – | “++++” (>75% = ++++) |
| 289 (VPENHSVAL; listed as Homo sapiens) [compound 289] | – | “++++” (>75% = ++++) |
| 278 (HPMIDINGIIVF; listed as Homo sapiens) [compound 278] | – | “++” (>20% = ++) |
| 240 (SPREVTTVL; listed as Homo sapiens) [compound 240] | – | “++++” (>75% = ++++) |
| 467 (KPFSSFTSM; listed as Homo sapiens) [compound 467] | – | “++++” (>75% = ++++) |
| 468 (SPMYGQAGL; listed as Homo sapiens) [compound 468] | – | “++++” (>75% = ++++) |
| 247 (RALLARLLL; listed as Homo sapiens) [compound 247] | – | “+++” (>50 = +++) |
| 236 (RVRGGEDGDRAL; listed as Homo sapiens) [compound 236] | – | “++++” (>75% = ++++) |
| 272 (MPLPWSLALPL; listed as Homo sapiens) [compound 272] | – | “++++” (>75% = ++++) |
| 295 (KPEGTRIAV; listed as Homo sapiens) [compound 295] | – | “++++” (>75% = ++++) |
| 288 (FPQKFIDLL; listed as Homo sapiens) [compound 288] | – | “++” (>20% = ++) |
| 286 (VPTLRSEL; listed as Homo sapiens) [compound 286] | – | “++++” (>75% = ++++) |
| 255 (MPLLENLYL; listed as Homo sapiens) [compound 255] | – | “++++” (>75% = ++++) |
| 253 (RVIDAVRFTL; listed as Homo sapiens) [compound 253] | – | “+++” (>50 = +++) |
| 275 (APHPPLSVV; listed as Homo sapiens) [compound 275] | – | “+++” (>50 = +++) |
| 265 (SPRQPPRLV; listed as Homo sapiens) [compound 265] | – | “++++” (>75% = ++++) |
| 284 (FPVTSIFHTF; listed as Homo sapiens) [compound 284] | – | “++” (>20% = ++) |
| 281 (RPRAPVTPA; listed as Homo sapiens) [compound 281] | – | “++++” (>75% = ++++) |
